Experimental data published in patent publication US20210380703A1.

target: human Fc (human); experiment: ELISA, negative control

| optical density [OD] | Binder |
| --- | --- |
| 0.295 | 365_G04 (antibody, V domains shown) VH: EVQLLESGGGLVQPGGSLRLSCAASGFTFDSYSMNWVRQAPGKGLEWVAGINYNGGYTGYADSVKGRFTISRDNSKNTLYLQMNSLRAEDTAVYYCARGANWHDTHLDYWGQGTLVTVSS VL: DIQMTQSPSSLSASVGDRVTITCRASQSIVSYVNWYQQKPGKAPKLVIYAATSLASGVPSRFSGSGSGTDFTLTISSLQPEDFATYYCQQSYDTPLTFGGGTKVEIK |
| 0.24 | 366_B05 (antibody, V domains shown) VH: EVQLLESGGGLVQPGGSLRLSCAASGFTFSDYSMNWVRQAPGKGLEWVSGINYNSGYKSYADSVKGRFTISRDNSKNTLYLQMNSLRAEDTAVYYCARGANWHDTALDYWGQGTLVTVSS VL: DIQMTQSPSSLSASVGDRVTITCRASQSISSYLNWYQQKPGKAPKLVIYAVTSRASGVPSRFSGSGSGTDFTLTISSLQPEDFATYYCQQSYELPLTFGGGTKVEIK |
| 0.288 | 365_G09 (antibody, V domains shown) VH: EVQLLESGGGLVQPGGSLRLSCAASGFTFSSYSMNWVRQAPGKGLEWVSGINYNGGYKSYADSVKGRFTISRDNSKNTLYLQMNSLRAEDTAVYYCARGANWHDTHLDYWGQGTLVTVSS VL: DIQMTQSPSSLSASVGDRVTITCRASQSIITYLNWYQQKPGKAPKLVIYAATSRASGVPSRFSGSGSGTDFTLTISSLQPEDFATYYCQQSYNSPLTFGGGTKVEIK |
| 0.319 | 365_G05 (antibody, V domains shown) VH: EVQLLESGGGLVQPGGSLRLSCAASGFTFSSYGMNWVRQAPGKGLEWVSGINYNGGYKGYADSVKGRFTISRDNSKNTLYLQMNSLRAEDTAVYYCARGANWHDTALDYWGQGTLVTVSS VL: DIQMTQSPSSLSASVGDRVTITCRASQSILSYLNWYQQKPGKAPKLVIYAATSLASGVPSRFSGSGSGTDFTLTISSLQPEDFATYYCQQSYENPLTFGGGTKVEIK |
| 0.243 | 366_A08 (antibody, V domains shown) VH: EVQLLESGGGLVQPGGSLRLSCAASGFTFDDYSMNWVRQAPGKGLEWVSGINYNSGYKGYADSVKGRFTISRDNSKNTLYLQMNSLRAEDTAVYYCARGANWHDTHLDYWGQGTLVTVSS VL: DIQMTQSPSSLSASVGDRVTITCRASQSIVSYVNWYQQKPGKAPKLVIYAATSRASGVPSRFSGSGSGTDFTLTISSLQPEDFATYYCQQSYNSPLTFGGGTKVEIK |
| 0.33 | 365_H07 (antibody, V domains shown) VH: EVQLLESGGGLVQPGGSLRLSCAASGFTFDSYSMNWVRQAPGKGLEWVSGINYNGGYTSYADSVKGRFTISRDNSKNTLYLQMNSLRAEDTAVYYCARGANWHDTHLDYWGQGTLVTVSS VL: DIQMTQSPSSLSASVGDRVTITCRASQSISTYVNWYQQKPGKAPKLLIYAATSRHSGVPSRFSGSGSGTDFTLTISSLQPEDFATYYCQQSYENPLTFGGGTKVEIK |
| 0.215 | 366_B07 (antibody, V domains shown) VH: EVQLLESGGGLVQPGGSLRLSCAASGFTFSDYGMNWVRQAPGKGLEWVSGINYNGGYTSYADSVKGRFTISRDNSKNTLYLQMNSLRAEDTAVYYCARGANWHDTHLDYWGQGTLVTVSS VL: DIQMTQSPSSLSASVGDRVTITCRASQSIVSYLNWYQQKPGKAPKLVIYATTSRASGVPSRFSGSGSGTDFTLTISSLQPEDFATYYCQQSYNSPLTFGGGTKVEIK |
| 0.374 | 366_D01 (antibody, V domains shown) VH: EVQLLESGGGLVQPGGSLRLSCAASGFTFSSYGMHWVRQAPGKGLEWVSSINYNGGYTGYADSVKGRFTISRDNSKNTLYLQMNSLRAEDTAVYYCARAANWHDTHLDYWGQGTLVTVSS VL: DIQMTQSPSSLSASVGDRVTITCRASQSILTYVNWYQQKPGKAPKLLIYAATSRASGVPSRFSGSGSGTDFTLTISSLQPEDFATYYCQQSYENPLTFGGGTKVEIK |
